{"source": "patent US8124375B2", "about": "“Geraniol synthase, methods of production and uses thereof” (The Regents Of The University Of Michigan, priority 2003, dated 2012)", "molecules": {"B1": {"name": "Superose12: geraniol synthase purified from basil glands after Superose 12 size exclusion chromatography (protein, UniProt Q6USK1 64-567, looked up)", "Geraniol synthase, …": "QHMEESSSKRREYLLEETTRKLQRNDTESVEKLKLIDNIQQLGIGYYFEDAINAVLRSPFSTGEEDLFTAALRFRLLRHNGIEISPEIFLKFKDERGKFDESDTLGLLSLYEASNLGVAGEEILEEAMEFAEARLRRSLSEPAAPLHGEVAQALDVPRHLRMARLEARRFIEQYGKQSDHDGDLLELAILDYNQVQAQHQSELTEIIRWWKELGLVDKLSFGRDRPLECFLWTVGLLPEPKYSSVRIELAKAISILLVIDDIFDTYGEMDDLILFTDAIRRWDLEAMEGLPEYMKICYMALYNTTNEVCYKVLRDTGRIVLLNLKSTWIDMIEGFMEEAKWFNGGSAPKLEEYIENGVSTAGAYMAFAHIFFLIGEGVTHQNSQLFTQKPYPKVFSAAGRILRLWDDLGTAKEEQERGDLASCVQLFMKEKSLTEEEARSRILEEIKGLWRDLNGELVYNKNLPLSIIKVALNMARASQVVYKHDQDTYFSSVDNYVDALFFTQ"}}, "key": {"[1]": {"assay": "Identification of enzymatic products of GES with GDP by SPME GC-MS", "format": "biochemical", "settings": "SPME gas chromatogram of the reaction solution, peak identified by MS", "protocol": "GES enzyme assays were also performed by adding 100 μl of enzyme solution with 900 μl assay solution containing 54 μM non-radioactive GDP (Echelon Research Laboratories, Salt Lake City, Utah) and the same buffer described above. The reactions were carried out in an 8 mL DuPont autosampler vial with a white solid-top polypropylene cap (Alltech, Deerfield, Ill.). After letting the reaction proceed for 2-4 hr at 32° C., the liberated compounds were collected with a solid-phase microextraction (SPME) device PDMS-100 with a polydimethylsiloxane fiber (Supelco, Bekkefonte, Pa.) by inserting the fiber into the tube and leaving it in for 20 mim at 42° C. After this incubation step, the solid-phase microextraction fiber was directly injected into the GC-MS."}, "[2]": {"assay": "GES enzyme assay (conversion of [1-3H]-GDP, hexane-extractable product counted by scintillation)", "format": "biochemical", "settings": "GES purification from gland of basil “Sweet Dani” cultivar", "protocol": "GES activity was assayed by incubating 5 μl of the enzyme sample in a final volume of 50 μl buffer containing 50 mM Hepes-KOH, pH 8.0, 1 mM DTE, 0.5 mM MnCI2, 20 mM MgCl2, 10% glycerol and 54 μM [1-3H]-GDP (specific activity 20 Ci/mol, American Radiolabeled Chemicals, St. Louis, Mo.). After incubation for 30 mm at […], 160 μl hexane was added to the tube, and vortexed briefly and centrifuged to separated the phases. The hexane layer was directly placed into a scintillation vial containing 2 ml of nonaqueous scintillation fluid (Econo-Safe, Research Products International, Mount Prospect Ill.). This extraction procedure was repeated twice and the total hexane phase was counted by Liquid Scintillation counter (LS-6500 model, Beckman Coulter, Fullerton, Calif.). Boiled enzyme extracts were used as controls."}}, "data": [{"molecule": "B1", "values": [{"measurement": "Products of the reaction catalyzed by purified GES with GDP", "setting": "[1]", "value": "Only a single peak was observed, identified as geraniol"}, {"measurement": "Total activity", "setting": "[2]; activity of the fraction after the named purification step", "value": 337.2, "unit": "ptat"}, {"measurement": "Specific activity", "setting": "[2]; activity per mg protein after the named purification step", "value": 6244.2, "unit": "pkat/mg"}]}]}
